Substitutions are numbered along the chain they refer to. Each block holds one binder with its values, some of them ahead of it.
Tests used:
[1] = target: T1, C57BL/6 mouse SIRP-α D1 domain (mouse (C57BL/6 strain), UniProt P97797 32-148); experiment: SPR, ProteOn, antibody on chip
T1 sequence: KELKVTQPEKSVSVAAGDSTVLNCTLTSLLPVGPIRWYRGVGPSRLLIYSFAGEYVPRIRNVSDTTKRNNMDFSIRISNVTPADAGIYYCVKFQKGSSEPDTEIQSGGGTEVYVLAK
Method: (§1) All experiments were performed at 25° C. using a SPR-based ProteOn XPR36 biosensor (BioRad, Inc, Hercules, Calif.) equipped with GLC or NLC sensor chips. […] Purification was carried out by standard Protein A affinity column chromatography and eluted antibodies were stored in PBS buffer.
(§2) The running buffer was PBS pH 7.4 with 0.01% Tween-20 (PBST+). All analytes were used at their nominal concentrations as determined by A280 Absorbance and using their molar calculated extinction coefficient.
(§3) For the method using GLC chip, the analytes were injected and flowed over anti-SIRPα antibodies immobilized (˜1000 RUs) on GLC chips using Proteon™ Amine Coupling Kit. For the immobilization step, GLC chip was activated with EDAC/Sulpho-NHS 1:1 (Biorad) diluted 1/100 for 300 s at 25 μL/min. Anti-SIRPα antibodies were diluted to 80 nM concentration in 10 mM sodium acetate buffer pH 4.5 and immobilized to the chip at 30 μL/min for 50 s. Chip was inactivated with ethanolamine for 300 s at 25 μL/min. The analytes (e.g., SIRP-α from different species, SIRP-β, SIRP-γ) were injected in a “one-shot” kinetic mode at nominal concentrations of 100, 33, 11, 3.7, 1.2 and 0 nM. Association times were monitored for 90 s at 100 μL/min, and dissociation times were monitored for 1200 s. The surfaces were regenerated with a 2:1 v/v blend of Pierce IgG elution buffer/4M NaCl.

[2] = target: T2, BALB/c mouse SIRP-α D1 domain (mouse (BALB/c strain)); experiment: SPR, ProteOn, antibody on chip
T2 chain: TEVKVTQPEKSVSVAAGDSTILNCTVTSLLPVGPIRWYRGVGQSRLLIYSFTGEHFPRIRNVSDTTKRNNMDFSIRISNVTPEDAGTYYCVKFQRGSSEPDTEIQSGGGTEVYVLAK
Method: as §1, §2, §3

[3] = target: T3, mouse 129 SIRP-α D1 domain (mouse (129 strain), UniProt P97797 32-150); experiment: SPR, ProteOn, antibody on chip
T3 construct: also called m129
T3 chain: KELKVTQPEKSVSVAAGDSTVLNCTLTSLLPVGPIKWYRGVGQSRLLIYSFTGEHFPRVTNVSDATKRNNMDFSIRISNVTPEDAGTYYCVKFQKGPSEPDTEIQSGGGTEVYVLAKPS
Method: as §1, §3
(§4) Next, the binding kinetics of various antibody clones to selected mouse SIRP-α proteins were determined as described above. Mouse proteins that were tested include BALBc (SEQ ID NO:10), BL6 (SEQ ID NO:9), NOD (SEQ ID NO:8), and m129 (SEQ ID NO:7) SIRP-α proteins. Antibody clones labeled as “c” were tested as full-length mouse IgG2a antibodies; antibody clones labeled as “a” were tested as full-length human IgG1 antibodies with L234A, L235A, G237A, and N297A mutations.

[4] = target: T4, NOD mouse SIRP-α D1 domain (mouse (NOD strain)); experiment: SPR, ProteOn, antibody on chip
T4 chain: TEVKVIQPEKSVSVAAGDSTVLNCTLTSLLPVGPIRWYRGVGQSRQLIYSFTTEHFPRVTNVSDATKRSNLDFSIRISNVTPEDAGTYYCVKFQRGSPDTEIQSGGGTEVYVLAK
Method: as §1, §3, §4

[5] = target: T5, human SIRP-α v1 (human, UniProt P78324 31-149); experiment: SPR
T5 construct: also called Human v1; Human V1
Method in brief: (§5)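 On a ProteOn XPR36 biosensor, purified antibodies were either amine-coupled to a GLC chip or captured on an NLC chip using biotinylated Protein A. The running buffer was PBS pH 7.4 with 0.01% Tween-20, at 25° C. SIRP analytes, at nominal concentrations fixed by A280 absorbance, were injected in one-shot kinetic mode. The rate constants are apparent values from a global simple Langmuir fit of double-referenced data, and KD equals kd/ka.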

[6] = target: T6, human SIRP-α v2 (human); experiment: SPR
T6 construct: also called Human v2; Human V2
Method in brief: as §5

[7] = target: T7, mouse 129 SIRP-α (mouse (129 strain), UniProt P97797 32-150); experiment: SPR Koff +/-
T7 construct: also called m129
T7 chain: T3 chain
Method in brief: as §5

T5 sequence (P78324 31-149 limits assumed): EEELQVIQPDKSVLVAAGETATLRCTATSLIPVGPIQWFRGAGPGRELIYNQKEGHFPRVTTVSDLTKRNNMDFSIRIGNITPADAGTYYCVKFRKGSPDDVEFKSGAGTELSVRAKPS

B1: AB3c (antibody, mouse IgG2a, V domains shown)
VH: AVTLDESGGGLQTPGGALSLVCKASGFIFSDYGMNWVRQAPGKGLEFVAQITSGSRTYYGAAVKGRATISRDNRQSTVKLQLNNLRAEDTGIYFCARDFGSGVGSIDAWGNGTEVIVSS
VL: ALTQPASVSANLGGTVKITCSGSRGRYGWYQQRSPGSAPVTVIYRDNQRPSNIPSRFSSSTSGSTSTLTITGVQADDESVYFCGSYDGSIDIFGAGTTLTVL
notes: Full-length mouse IgG2a
Kd [1]: 15 nM | koff [1]: 0.00619 s⁻¹ | kon [1]: 412000 M⁻¹ s⁻¹ | Kd [2]: 5.31 nM | koff [2]: 0.00412 s⁻¹ | kon [2]: 776000 M⁻¹ s⁻¹ | Kd [3]: 22 nM | koff [3]: 0.0118 s⁻¹ | kon [3]: 534000 M⁻¹ s⁻¹ | Kd [4]: 1.43 nM | koff [4]: 0.00143 s⁻¹ | kon [4]: 999000 M⁻¹ s⁻¹

B2: antibody 3 (antibody, V domains shown)
VH: B1 VH
VL: B1 VL
notes: also called AB3; S3
Kd [5]: 0.162 nM | Kd [6]: 0.0767 nM

B3: antibody 121 (antibody, V domains shown)
VH: VQLVESGGGVVQPGGSLRLSCAASGFSFSNFAMTWVRQAPGEGLEWVSTIGSGDTYYADSVKGRFTISRDNSKNTLYLQMNSLRAEDTAVYYCAKDSTVSWSGDFFDYWGLGTLVTVSS
VL: EIVLTQSPATLSVSPGERATFSCRASQNVKNDLAWYQQRPGQAPRLLIYAARIRETGIPERFSGSGSGTEFTLTITSLQSEDFAVYYCQQYYDWPPFTFGGGTKVEIK
notes: also called S121
Kd [5]: 0.157 nM | Kd [6]: 0.0501 nM | binding result [7]: no binding

B4: antibody 120 (antibody, V domains shown)
VH: B3 VH with L114R
VL: B3 VL
notes: also called S120
Kd [5]: 0.214 nM | Kd [6]: 0.0856 nM | binding result [7]: no binding

B5: antibody 73 (antibody, V domains shown)
VH: DVQLVESGGGVVRPGESLRLSCEASGFTFSSNAMSWARQAPGKGLEWVAGISSGSDTYYGDSVKGRLTISRDNSKNILYLQMNSLTAEDTAVYYCARETWNHLFDYWGLGTLVTVSS
VL: ALTQPASVSANPGETVKITCSGGIYSSYYYAWYQQKSPGSAPVTLIYSDDKRPSNIPSRFSGSASGSTATLTITGVRAEDEAVYFCGGYDQSSYTNPFGAGTTLTVL
notes: also called S73
Kd [5]: < 0.001 nM | Kd [6]: < 0.001 nM

B7: antibody 201 (antibody, V domains shown)
VH: DVQLVESGGAVVRPGETLRLSCTASGFTFSSYAMSWVRQAPGKGLEWVSGISASGSDTYYADSVKGRSTISRDNSKNTLYLRMSSLTAEDTAVYYCARETWNHLFDYWGLGTLVTVSS
VL: ALTQPASVSANPGETVKITCSGGGTSSYYGWYQQKSPGSAPVTLIHSDDKRPSDIPSRFSGSASGSTATLTITGVQVEDEAVYYCGGYDYTTYVNTFGAGTTLTVL
notes: also called S201
Kd [5]: < 0.001 nM | Kd [6]: 0.00487 nM

B8: antibody 175 (antibody, V domains shown)
VH: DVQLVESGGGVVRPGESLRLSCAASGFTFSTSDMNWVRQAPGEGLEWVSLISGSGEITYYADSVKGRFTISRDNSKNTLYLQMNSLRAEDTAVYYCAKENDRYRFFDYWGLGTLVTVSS
VL: ETVLTQSPGILSLSPGERATLTCRASQSVYTYLAWYQEKPGQAPRLLIYGASSRAAGIPDRFSGSGSGTEFTLTISSLQSEDFAVYYCQQYYDRPPLTFGGGTKVEIK
notes: also called S175
Kd [5]: 0.137 nM | Kd [6]: 0.662 nM

B9: antibody 189 (antibody, V domains shown)
VH: DVQLVESGGGVVRPGESLRLSCAASGFTFSSSDMNWVRQAPGEGLEWVSLISGSGEITYYADSVKGRFTISRDNSKNTLYLQMNSLRAEDTAIYYCAKENNMYRFFDYWGLGTLVTVSS
VL: B8 VL with I10T, T22S, E38Q, A43P, Y49H, G50A, S52R, S53N
notes: also called S189
Kd [5]: 0.31 nM | Kd [6]: 1.9 nM

B10: antibody 163 (antibody, V domains shown)
VH: DVQLVESGGGLVRPGESLRLSCAASGFTFTNYAVTWVRQAPGEGLEWVSLISVTGTTYYADSVKGRFTISRDNSKSTLYLQMNGLRAEDTAVYYCAKVTWKNVFDYWGLGTLVTVSS
VL: EIVLTQSPGTLSVSPGERATFSCRASQTVGSKLAWYQQKPGQAPRLLIYDANTRATGIPARFSGSGSGTEFTLTISSLQSEDFAVYYCQQHTDWPPYTFGGGTKVEIK
notes: also called S163
binding result [7]: no binding

B14: antibody 132 (antibody, V domains shown)
VH: DVQLVESGGGVVRPGESLRLSCAASGFSFRSYAMNWVRQAPGEGLEWVSRINSGGGGTDYADSVKGRFTISRDNSKNTLYLQMNSLRAEDTAVYYCAKQYDWNSFFDYWGLGALVTVSS
VL: ETVLTQSPATLSVSPGERATLSCRASQTVGSKLAWHQQKPGQAPRLLIYDASNRATGIPDRFSGSGSGTDFTLTISSPQTEDSAVYYCQQYYYWPPYRFGGGTKVEIK
notes: also called AB132; S132
Kd [5]: 0.426 nM | Kd [6]: 1.86 nM | binding result [7]: no binding

The remaining lines, values ahead:

Kd [5]: 0.123 nM | Kd [6]: 0.276 nM
B6: antibody 218 (antibody, V domains shown)
VH: DVQLVESGGGVVRPGESLTLSCTASGFTFTSSTMNWVRQAPGEGLDWVSSISTSGVITYYADSVKGRATISRDNSKNTLYLRLFSLRADDTAIYYCATDTFDHWGPGTLVTVSS
VL: ALTQPASVSANPGETVKITCFGSSGNYGWFQQKSPGSAPVTVIHYNNKRPSDIPSRFSGSKSGSTGTLTITGVRAEDEAVYFCGAWETGSATFGAGTTLTVL
notes: also called AB218; S218

binding result [7]: no binding
B11: antibody 162 (antibody, V domains shown)
VH: B10 VH with G84S
VL: B10 VL
notes: also called S162

binding result [7]: no binding
B12: antibody 164 (antibody, V domains shown)
VH: B10 VH
VL: B10 VL with G66R
notes: also called S164

Kd [5]: < 0.001 nM | Kd [6]: < 0.001 nM
B13: antibody 202 (antibody, V domains shown)
VH: DVQLVESGGGVVRPGESLRLSCAASGFTFSSYAMSWVRQAPGKGLEWLAGISAGGSDTYYIDSVKGRFTISRDNSKNSLYLQMNSLTAEDTAVYYCARETWNHLFDYWGLGTLVTVSS
VL: ALTQPASVSANPGETVKITCSGGGYYSTYYGWYQQRSPGSAPVTVIHSDDKRPSDIPSRFSGSASGSAATLTITGVRVEDEAVYYCAGYDGRTYLNTFGAGTTLTVL
notes: also called S202

binding result [7]: no binding
B15: antibody 191 (antibody, V domains shown)
VH: B14 VH with R30S, D62E, K76E, S104G
VL: B14 VL with S52T, S77G, P78L
notes: also called S191

binding result [7]: no binding
B16: antibody 198 (antibody, V domains shown)
VH: B14 VH with R30S, Y32H, D62E, K76E, S104G
VL: B14 VL with S52T, P78L
notes: also called S198

From US20210363269A1 (ALX ONCOLOGY, published 2021)
